Test results reported in the DeepSol protein solubility set.

Assay: soluble on expression in E. coli; label from the status in PepcDB or PDB records

| Sequence | soluble on expression in E. coli |
| --- | --- |
| MSLDDSVFVGHLKDVTGATGFVGKLYGEGVNDALVWINAHGGIDGTRLDFESVDYAYEVPRAIALYKKWTSQNKMVALQGWGTGDTEALISFVAKDKIPVLSGSYSGHLTDPTGKNPKTQKPAPYNFFYGPSYSDACRALVQWAEGDWKAKGKEGKPKFIHAGDNHPYPNAPKEACADFATELGFEVLPPVVVSLKPGDFKAQCLTIKQSGANYVYVANLGPSVVSLVKSCKTVGTDAQYMANIWGGDSETQKTLGADGDGYVFVAANAFWGDDAPGLALVREIAGSETPRTHHYIRGVCSTFYMKEAMEWAKAHGGLTGESIRNAMYARKDWVPKGLEGVCIPSTWTPEDHRGMTKVFIYQMQNGSEIHKIAETDLPRRDDWLGYEGHHHHHH | not soluble |
| MLIKIAPSILSADFSKLGEEVLRIEKAGADLVHIDVMDGHFVPNITIGPPVVKSLKKVSKLPFDVHLMIENPDMYIESFADAGADIISVHAEACRHLHRTIQKIKQLGIKAAVALNPATPLCAVEWVMEDVDMILLMTVNPGFGGQKYINGVTRKIEELERIVESRGLNIDIEVDGGIDTETVQYVTKAGANVIVSGSTIFAAEDTAKIIQELRMNSYRK | not soluble |
| MKQLTVEDAKQIELEILDYIDTLCKKHNINYIINYGTLIGAVRHEGFIPWDDDIDLSMPREDYQRFINIFQKEKSKYKLLSLETDKNYFNNFIKITDSTTKIIDTRNTKTYESGIFIDIFPIDRFDDPKVIDTCYKLESFKLLSFSKHKNIVYKDSLLKDWIRTAFWLLLRPVSPRYFANKIEKEIQKYSRENGQYMAFIPSKFKEKEVFPSGTFDKTIDLPFENLSLPAPEKFDTILTQFYGLEHHHHHH | not soluble |
| MSKIARKDVERLIELVGGPDNIASVSHCLTRLRFVLNDTDKADTKQLEALRMVKGCFTNAGQFQVVIGTEVDEVYKVLIELSGKSEASKDESKNAARQNMNIVERGISHLAE | not soluble |
| MKTYDVVVVGAGMLGIAHAWAAARRGLSVAVVERSQRAHGATIRNFGQVLVTGQAPGVMARHARQSRELWLELAAGAGFHVRANGSLVLARSALEQDVLEEFAAARLQAEGYRAELLSGRELARLFDGRLGHHCAALRGHDDLQIYSREALPAITAYLADRFGVEFLTATLASAVREGVVQTSAGALRGRHAFVCPGHDYLTLAPELFAPLGLQVSCLQMLRVAFETRPFALDRPLLTGLSCVYYGAFSDLPTARTLRESLQRHEPDLLDNGIHLLVSPTPHGELIIGDSHRYGVDALPFNDEQVDCAMLDLAQQALGCRLRVIERWQGVYGAHGPAPFSVLPVDDQTTVAVMHSGVGMTVGLAVGENTVQARLGLEHHHHHH | not soluble |
| MAHHHHHHMSVPLRRTVLHSLHLSRKARMGPFAGYDMPIHYQPGVVQEHLHTRQAAGLFDVSHVGFFEVWGADRHKFFEWVTPSGVTELQDGQSALTLFMNESGGVKDDCIVSKYSDHLLAVINAGCKGKIITHLKDRLAEFKGDATLVELDRAMVSLQGPKAASVMAPFVEELDRVKFMWGRRSVCVKGIDITLTRCSYSGEDGFDIIVPIQDAVQFVELLLQNPDVQLAGLGARDSLRTEAGLCLYSHELSEEVNPVAARLMWCIPKRRMAEGGFIGHERLQTFVQRAKELVPRLRMGILSVARGPVARTGMPILVGDVVVGEVTSGVPSPTLSRNIAIGYIDRAKARAGETVELEVRGKRLPGEVTLPRFVPQRYYKG | not soluble |
| MGSSHHHHHHSSGLVPRGSHMWIGVISLFPEMFKAITEFGVTGRAVKHNLLKVECWNPRDFTFDKHKTVDDRPYGGGPGMLMMVQPLRDAIHTAKAAAGEGAKVIYLSPQGRKLDQGGVTELAQNQKLILVCGRYEGIDERLIQTEIDEEWSIGDYVLTGGELPAMTLIDAVARFIPGVLGKQASAEEDSFADGLLDCPHYTRPEVLEGLTVPPVLMSGHHEEIRKWRLKQSLQRTWLRRPELLEGLALTDEQRKLLKEAQAEHNSLEHHHHHH | soluble |
| MSFFFLEVLTYFDYDSSMTIKAEIKALAKEIGISKIGFTTADNFDYLEKSLRASVEEGRNSGFEHKVIEDRIYTERLLESAKTIISIGVAYPHKLPQQPQKTPYKRGKITPSSWGLDYHYVVGEKLDRLSKGIEELCRDFPLQQKAMVDTGALVDTAVAQRAGIGFIGKNGLVISKEYGSYMFLGELITNLEIEPDKPVDYDCGDCRRCLDACPTSCLIGDGSMNAKRCLSFQTQDKGMMDIEFRKKIKTVIYGCDICQICCPYNKGINNSPATEIDPELAQPELIPFLSLSNGKFKEKFGMIAGSWRGKNILQRNAIIALANAHDKTAVVKLIEIIDKNNNPIHTATAIWALGEIVKKPNDEILAFMSHLTLKDEDSRKELELIRHKWQF | not soluble |
| MKQTVLLLFTALFLSGCSVASADDSVPRFTEEGKYIGSADPHTIAVSLNGEETMIQVPKDKRDECESLPDQTHVLVKYTKKDNGTLQLEDIQLRKTS | soluble |
| MVPLVAVVSGPRAQLFACLLRLGTQQVGPLQLHTGASHAARNHYEVLVLGGGSGGITMAARMKRKVGAENVAIVEPSERHFYQPIWTLVGAGAKQLSSSGRPTASVIPSGVEWIKARVTELNPDKNCIHTDDDEKISYRYLIIALGIQLDYEKIKGLPEGFAHPKIGSNYSVKTVEKTWKALQDFKEGNAIFTFPNTPVKCAGAPQKIMYLSEAYFRKTGKRSKANIIFNTSLGAIFGVKKYADALQEIIQERNLTVNYKKNLIEVRADKQEAVFENLDKPGETQVISYEMLHVTPPMSPPDVLKTSPVADAAGWVDVDKETLQHRRYPNVFGIGDCTNLPTSKTAAAVAAQSGILDRTISVIMKNQTPTKKYDGYTSCPLVTGYNRVILAEFDYKAEPLETFPFDQSKERLSMYLMKADLMPFLYWNMMLRGYWGGPAFLRKLFHLGMS | not soluble |
| MSLYYEQPIYIATQENWDLELNPQIRTNRGFGLYSTLRFLDSPYSTGELNFGAFRENSSYFHDENLKNQTHYGIELKYSRDDLIKSLLSDNFQEGLWIDATYLNDVDYLNLGSRDYRDLNSLVTSKINYFLADENNFYGAYARYYIDTSKLSNNTTLQEYPSFQYHRFLNNLFDERLRYSFDASFHNFYRPAGSYANELNLDLPISYHNAFFGDFLHFTFTERFYASFVNYSNDPERNHEHYFRNTHDFNLYTDLSKAYENFFHTLNLGVNYILPGAKSGKITQDYLEEYDKENEHTSLYAVQYFYNNEGQKKLKHRISLDYLNKQNEFYELENLLTYYFNENINLNSEVLYSYEQSRFTNVISQIEVNTNSKFNWMFSHAYQNDEYGKYSFIGTRANYIATPNYNLFGGIWFDTQRAHANMWELGYTYQRKCWNYSLMYRERIDPQLTSGGITAKNQSGVYFIFNFYPLGGVKYDFSLAESENKIEGHHHHHH | not soluble |
| MPSSGQLYGDEERELTPTPAIPEEGVYEVKYSNRRTNVVRLLPNGFQERKLRRLANLSAKLFNEVNFERRQQFFHEGKVNIEETYKKYYEKYKVILGVNAQAVLNKNNEAWSSFFSLLKLKKEGKLPPHMNHVSPPGYWKDREAGKRKQILVIRQDRYKVDAENHKLILKDFDMEIDFIGRLKWYGKQGRLEIIFDETRNAWYAHIPIEVGVEETKAGKKSKHVVKGERKSIQISKPKGNKVASIDLGINVIASVVVNDGTWLLYKGVRTKEDYFYFQKRIAEVQSLADRTRNIGEYDAYLELLREKRRLFKKLTRRLTHLYRNLASHLIETLYELGVSTIYLGYPFNIVQEKGNKFTVNMWSYRKLMESIELKAQEYGMKVFEVVEYNTSKYCAYHDVEVKRNPRGVINCPLGHKLHSDLNGALNILKKALGVIVNAVKKPLSFIVDHNRVAPIKGCNPLEHHHHHH | not soluble |
| MGSDKIHHHHHHMSSLGLIRNLPRSRFVPLVVLHDTDGPVADLFRREGIDFVAAPVLNRLARAAPRNGAAVVNVMRTLPALVRFLRASNASIVHTNDGRTHLIWGLAARVAGAKHLWHHRGDATSFGLRRVAPWLPNRLVAVSKFASPRPGIFSAASKCSVVHSPFDVTKMAGFEREEARNNVLAAIRCAPETKLLGYVGTLVDRKRPILFVEAVAALKRLSPETKVVGLFFGNALNGLDEAAKSRAEALGVADCIHFMGFRYPGEPWIAGLDALLVTAVNEPLGRTLVEAMLLGTPVVAADSGGNPEVVEDGRTGMLVRADDPDEFARACLKLFSDAALRDRIVETARNEVRARFSFERHVHAITSVYEELTGGMAAMQRSARAG | not soluble |
| MLTLTAGKKAAMDRLSTQEGIISALAIDQRGALKKMIKALDVEPTDAQIETFKELVSKELTPYASAILLDPEYGLPAAKARDTEAGLLLAYEKTGYDATTPGRLPDLLADWSVLRLKEEGADAIKFLLYYDVDEDPEINHQKHVFIERLGSECAEEDLPFYLELVSYDAQIADATSLEYAKVKPHKVNEMMKEFSKPQYKVDVLKVEVPVNMNFVEGFAPAETAYTKEEAANYFLEQSQATDLPFIFLSAGVSTELFQETLRFAKEAGSTFNGVLCGRATWKNGVKPFVEAGETAACDWLKTEGRENIESLNEVIAATASSWHAKVQVNEG | not soluble |
| MIELEVFPHRYLKAETTEKFLNRAYSLSKVQRVVIHGESLPNKVGYGPAKGTPVNHSEKKEITVKGVPVELMLQVGRLWVLLDDESEIEKIEEICKDLFPFGYRLTKGKFLRNDPTVSDFIKYGESAVDDIDKRLLGATDPRSKFDSSVTIIPKSEKNELEHHHHHH | soluble |
| GERQVYRKIRDRASYAFALISVAAVVRMEEGRIATARLAFGGLAHKPWRDPEVEACLEGETPSDDLFDRAADRLLQSARGQGENDFKIPLTRRALTAALREATG | not soluble |
| MGSDKIHHHHHHMTKTYHFIGIKGSGMSALALMLHQMGHKVQGSDVEKYYFTQRGLEQAGIQILPFDEKNITADVELIAGNAFRPDNNVEIAYVDAQGYTYKRYHEFLGEFMKGFTSLGVAGAHGKTSTTGLLAHVMRNITDTSFLIGDGTGRGSANAQYFVFESDEYERHFAPYHPEYSIITNIDFDHPDYFTSLEDVFNAFNDYAKQVKKALLVFGEDEQLRRITANAPIYYYGFEENNDFVAYDLKPSTSGSQFKVRHGEEELGEFQIPTFGKHNVMNATAVIANLYIAGFDLQLVAEHLKTFGGVKRRFTEKIVNDTVIIDDFAHHPTEIIATIDAARQKYPSKELVAIFQPHTFTRTIALLDEFADALNGADAVYLAQIYGSARETDNGQVKVEDLAAKINKKGGLVTVENTSPLLDHDNAVYVFMGAGDIQSYEYSFERLLSNLTNNVQ | not soluble |
| MISGPFLHFDPTVPLQTVMIGHPATSPLSLPSSSSSPTVADPSNIHCRVCERRYDGSQHFGIDICRACAAFFRRSVAVKKTFVCRRGTNKCELNTVSRKTTCQKCRWMRCLLVGLNVDAVVGRRSPDHVKTTSRDESVKKEDEESDTGSEGKSCEDMDVSHPIEQFQQQISFSVHRPIPTIGNPNIYTTRASLINKVLINYNEFTKSRLDVELSLKHMQQDSKVFGSTGIPIVPATREIISEIYQKQFGLLHIFLKNTFDEYAECDVQEQKRICAMFYPVLWEIESCYWTYRNMPVQPEYETLMMCTQTTYIDSKNVRYWLGNTTGLNESDIQAVEARLENLLTKARNLVLEPMHKLIIKEFEFITLLALNIWAPRNHRGCVSEDRAEQVRDALFDDLHYLYCDGLKIDKYSSRMGEMMCLHTEVQNADMSSTIKNILFSDLNAYLYSI | not soluble |
| MKQRPKEYYEQLEELQAVDFTLVELTLYLDTHPTDYQAIQQFNQLAQKRKQLKKQFEAAYGPLEQFGHSYSNYPWNWDDTPWPWQV | not soluble |
